{
  "source": "patent US9561272B2",
  "about": "“Compositions and methods for modulating immune responses” (The University of Queensland, priority 2006, dated 2017)",
  "molecules": {"B1": {"name": "ovalbumin (protein, UniProt P01012 2-386, looked up)", "Ovalbumin": "GSIGAASMEFCFDVFKELKVHHANENIFYCPIAIMSALAMVYLGAKDSTRTQINKVVRFDKLPGFGDSIEAQCGTSVNVHSSLRDILNQITKPNDVYSFSLASRLYAEERYPILPEYLQCVKELYRGGLEPINFQTAADQARELINSWVESQTNGIIRNVLQPSSVDSQTAMVLVNAIVFKGLWEKAFKDEDTQAMPFRVTEQESKPVQMMYQIGLFRVASMASEKMKILELPFASGTMSMLVLLPDEVSGLEQLESIINFEKLTEWTSSNVMEERKIKVYLPRMKMEEKYNLTSVLMAMGITDVFSSSANLSGISSAESLKISQAVHAAHAEINEAGREVVGSAEAGVDAASVSEEFRADHPFLFCIKHIATNAVLFFGRCVSP", "notes": "model antigen"}, "B2": {"name": "FITC-OVA: fluorescein isothiocyanate conjugated to ovalbumin (conjugate, UniProt P01012 2-386, looked up)", "Ovalbumin": "B1 Ovalbumin", "modifications": "FITC label", "notes": "fluorescein isothiocyanate conjugated to ovalbumin"}, "B3": {"name": "SIRT1 Deacetylase overexpression (protein, UniProt Q96EB6 2-747, looked up)", "NAD-dependent protein …": "ADEAALALQPGGSPSAAGADREAASSPAGEPLRKRPRRDGPGLERSPGEPGGAAPEREVPAAARGCPGAAAAALWREAEAEAAAAGGEQEAQATAAAGEGDNGPGLQGPSREPPLADNLYDEDDDDEGEEEEEAAAAAIGYRDNLLFGDEIITNGFHSCESDEEDRASHASSSDWTPRPRIGPYTFVQQHLMIGTDPRTILKDLLPETIPPPELDDMTLWQIVINILSEPPKRKKRKDINTIEDAVKLLQECKKIIVLTGAGVSVSCGIPDFRSRDGIYARLAVDFPDLPDPQAMFDIEYFRKDPRPFFKFAKEIYPGQFQPSLCHKFIALSDKEGKLLRNYTQNIDTLEQVAGIQRIIQCHGSFATASCLICKYKVDCEAVRGDIFNQVVPRCPRCPADEPLAIMKPEIVFFGENLPEQFHRAMKYDKDEVDLLIVIGSSLKVRPVALIPSSIPHEVPQILINREPLPHLHFDVELLGDCDVIINELCHRLGGEYAKLCCNPVKLSEITEKPPRTQKELAYLSELPPTPLHVSEDSSSPERTSPPDSSVIVTLLDQAAKSNDDLDVSESKGCMEEKPQEVQTSRNVESIAEQMENPDLKNVGSSTGEKNERTSVAGTVRKCWPNRVAKEQISRRLDGNQYLFLPPNRYIFHGAEVYSDSEDDVLSSSSCGSNSDSGTCQSPSLEEPMEDESEIEEFYNGLEDEPDVPERAGGAGFGTDGDDQEAINEAISVKQEVTDMNYPSNKS"}, "B4": {"name": "Uteroglobin (protein, UniProt P11684 22-91, looked up)", "Uteroglobin": "EICPSFQRVIETLLMDTPSSYEAAMELFSPDQDMREAGAQLKKLVDTLPQKPRESIIKLMEKIAQSSLCN"}, "B5": {"name": "NRF (NF-κB repression factor) (protein, UniProt O15226 1-690, looked up)", "NF-kappa-B-repressing factor": "MEKILQMAEGIDIGEMPSYDLVLSKPSKGQKRHLSTCDGQNPPKKQAGSKFHARPRFEPVHFVASSSKDERQEDPYGPQTKEVNEQTHFASMPRDIYQDYTQDSFSIQDGNSQYCDSSGFILTKDQPVTANMYFDSGNPAPSTTSQQANSQSTPEPSPSQTFPESVVAEKQYFIEKLTATIWKNLSNPEMTSGSDKINYTYMLTRCIQACKTNPEYIYAPLKEIPPADIPKNKKLLTDGYACEVRCQNIYLTTGYAGSKNGSRDRATELAVKLLQKRIEVRVVRRKFKHTFGEDLVVCQIGMSSYEFPPALKPPEDLVVLGKDASGQPIFNASAKHWTNFVITENANDAIGILNNSASFNKMSIEYKYEMMPNRTWRCRVFLQDHCLAEGYGTKKTSKHAAADEALKILQKTQPTYPSVKSSQCHTGSSPRGSGKKKDIKDLVVYENSSNPVCTLNDTAQFNRMTVEYVYERMTGLRWKCKVILESEVIAEAVGVKKTVKYEAAGEAVKTLKKTQPTVINNLKKGAVEDVISRNEIQGRSAEEAYKQQIKEDNIGNQLLRKMGWTGGGLGKSGEGIREPISVKEQHKREGLGLDVERVNKIAKRDIEQIIRNYARSESHTDLTFSRELTNDERKQIHQIAQKYGLKSKSHGVGHDRYLVVGRKRRKEDLLDQLKQEGQVGHYELVMPQAN"}},
  "key": {"[1]": {"conditions": "cited from earlier work"}, "[2]": {"assay": "Entrapment efficiency of NF-κB inhibitor and antigen in liposomes (% EE)", "type": "physicochemical", "conditions": "EPC liposomes; for entrapment efficiency of NF-κB inhibitor in liposomes: after removal of non-entrapped drug; for entrapment efficiency of protein antigen in liposomes: freeze-thawing cycle repeated 5 times", "description": "Entrapment efficiency of protein following this process was typically at least 20%, approximately 60% for Bay and greater than 80% for both Quecertin and Curcumin. Empty, NF-κB inhibitor or protein only liposomes were prepared as above, by omitting the relevant bioactive/s. Following removal of non-entrapped NF-κB inhibitor and antigen, the amount of NF-κB inhibitor and antigen entrapped in liposome could be quantified by assay method. The entrapment efficiency was expressed as: [formula] […] The resulting solution was then kept at −20° C. After 30 minutes, the sample was centrifuged at maximum speed at 4° C. for 10 minutes (EBA 12R centrifuge, Hettich Zentrifugen, Germany) to remove precipitated protein. The concentration of Bay 11-7082 in the resulting supernatant was then assayed and calculated based on the established calibration (with consideration to the dilutions performed) (data not shown). […] The concentration of either quercetin or curcumin in the resulting solution was then assayed and calculated based on the established calibration curves (with consideration to the dilutions performed). […] The quantity of model antigen entrapped in liposomes was determined by a standard bicinchoninic acid (BCA) protein assay with slight modification. Briefly, liposomes loaded with OVA or mBSA were lysed using ethanol or iso-propanol at 20-fold dilution, respectively, and then stored at −20° C. After 30 minutes, the sample was centrifuged at maximum speed at 4° C. for 10 minutes (EBA 12R centrifuge, Hettich Zentrifugen, Germany). The supernatant containing lipid and NF-κB inhibitor was discarded. The protein pellet was then placed in an Alpha 2-4 LD Freeze-drier (Alpha 2-4 LD Freeze-drier, Martin Christ, Germany) to remove remaining solvent. One hundred μL of 2.5% w/v sodium dodecyl sulfate (SDS) solution (for OVA) or water (for mBSA) was added to redissolve the protein pellet. SDS was required for aiding to re-dissolve OVA pellet. The resulting protein solution was mixed with 2 mL of BCA solution (Pierce Biotechnology Inc., USA) and incubated at 37° C. for 30 minutes. After incubation, the absorbance of the solution was measured using a Cary 50 UV-VIS spectrophotometer (Varian, Calif., USA) at a wavelength of 562 nm. The concentration of OVA and mBSA was calculated on the basis of calibration curves established using a series of known concentrations of either OVA or mBSA solution ranging from 0.25 mg/mL to 2 mg/mL."}, "[3]": {"conditions": "previous experiment, thin film method without freeze-thawing, same EPC concentration (Copland 2003); cited from earlier work"}, "NF-κB": {"test_system": "NF-κB", "conditions": "Table 3, miscellaneous inhibitors of NF-κB; step of NF-κB function inhibited, per the cited reference; cited from earlier work"}},
  "data": [
    {"molecule": "Cc1ccc(S(=O)(=O)/C=C/C#N)cc1", "note": "[Bay 11-7082, E3((4-methylphenyl)-sulfonyl)-2-propenenitrile, reference compound]", "values": [
      {"measurement": "log P", "setting": "[1]", "value": 1.63},
      {"measurement": "entrapment efficiency of NF-κB inhibitor in liposomes", "setting": "[2]", "value": "around 60%"},
      {"measurement": "entrapment efficiency of NF-κB inhibitor in liposomes", "setting": "[2]; listed as Bay", "value": "approximately 60%"}
    ]},
    {"molecule": "methylated bovine serum albumin [mBSA]", "values": [
      {"measurement": "entrapment efficiency of protein antigen in liposomes", "setting": "[2]", "value": "approximately 25%"}
    ]},
    {"molecule": "B1", "values": [
      {"measurement": "entrapment efficiency of protein antigen in liposomes", "setting": "[2]", "value": "~20", "unit": "%"}
    ]},
    {"molecule": "B2", "values": [
      {"measurement": "entrapment efficiency of FITC-OVA in liposomes", "setting": "[3]", "value": "less than 5%"}
    ]},
    {"molecule": "B3", "values": [
      {"measurement": "Effect or point of inhibition", "setting": "NF-κB", "value": "DNA binding"}
    ]},
    {"molecule": "B4", "values": [
      {"measurement": "Effect or point of inhibition", "setting": "NF-κB", "value": "DNA binding"}
    ]},
    {"molecule": "B5", "values": [
      {"measurement": "Effect or point of inhibition", "setting": "NF-κB", "value": "Transactivation"}
    ]}
  ]
}
